# In US20240084003A1 (SIMCERE ZAIMING PHARMACEUTICAL, published 2024):
# T1: human CD22-ECD-His protein (human, UniProt P20273 20-687)
# T1 construct: Made in house in HEK293E; also called hCD22-ECD-His; recombinant human CD22-ECD His protein; not shown: His tag
# T1 sequence: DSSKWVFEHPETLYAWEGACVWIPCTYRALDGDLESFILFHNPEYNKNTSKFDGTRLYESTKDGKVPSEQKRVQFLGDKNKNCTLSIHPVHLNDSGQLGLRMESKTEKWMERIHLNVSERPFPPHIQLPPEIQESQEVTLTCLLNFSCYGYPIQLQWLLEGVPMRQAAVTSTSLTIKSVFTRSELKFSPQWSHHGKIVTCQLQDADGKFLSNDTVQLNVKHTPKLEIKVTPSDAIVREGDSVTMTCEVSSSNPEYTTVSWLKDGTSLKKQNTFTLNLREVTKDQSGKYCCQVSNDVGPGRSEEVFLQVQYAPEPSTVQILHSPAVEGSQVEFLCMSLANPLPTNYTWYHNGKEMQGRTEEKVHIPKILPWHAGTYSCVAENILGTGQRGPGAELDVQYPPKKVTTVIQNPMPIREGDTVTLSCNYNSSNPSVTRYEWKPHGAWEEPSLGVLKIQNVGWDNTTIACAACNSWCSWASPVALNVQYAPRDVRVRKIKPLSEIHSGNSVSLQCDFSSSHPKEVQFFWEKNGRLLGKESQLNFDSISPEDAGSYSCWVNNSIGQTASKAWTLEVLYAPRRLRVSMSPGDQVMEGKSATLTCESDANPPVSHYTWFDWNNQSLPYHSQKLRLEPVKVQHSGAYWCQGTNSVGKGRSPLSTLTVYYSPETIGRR
# T2: human CD22 domain5-7-His (human, UniProt P20273 414-687)
# T2 construct: also called hCD22 domain5-7-His; not shown: His tag
# T2 sequence: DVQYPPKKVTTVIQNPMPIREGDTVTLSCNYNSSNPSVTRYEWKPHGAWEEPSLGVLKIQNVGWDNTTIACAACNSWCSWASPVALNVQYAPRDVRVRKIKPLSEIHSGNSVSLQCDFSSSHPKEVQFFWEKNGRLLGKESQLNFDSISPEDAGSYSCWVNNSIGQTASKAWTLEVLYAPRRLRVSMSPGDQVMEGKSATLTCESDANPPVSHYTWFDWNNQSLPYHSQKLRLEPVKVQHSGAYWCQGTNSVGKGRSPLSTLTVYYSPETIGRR
# T3: murine CD22 protein (ACROBiosystems, SI2-M52Ha) (murine, UniProt P35329 22-708)
# T3 construct: extracellular domain; also called murine CD22-ECD; murine CD22-ECD-His
# T3 sequence (looked up): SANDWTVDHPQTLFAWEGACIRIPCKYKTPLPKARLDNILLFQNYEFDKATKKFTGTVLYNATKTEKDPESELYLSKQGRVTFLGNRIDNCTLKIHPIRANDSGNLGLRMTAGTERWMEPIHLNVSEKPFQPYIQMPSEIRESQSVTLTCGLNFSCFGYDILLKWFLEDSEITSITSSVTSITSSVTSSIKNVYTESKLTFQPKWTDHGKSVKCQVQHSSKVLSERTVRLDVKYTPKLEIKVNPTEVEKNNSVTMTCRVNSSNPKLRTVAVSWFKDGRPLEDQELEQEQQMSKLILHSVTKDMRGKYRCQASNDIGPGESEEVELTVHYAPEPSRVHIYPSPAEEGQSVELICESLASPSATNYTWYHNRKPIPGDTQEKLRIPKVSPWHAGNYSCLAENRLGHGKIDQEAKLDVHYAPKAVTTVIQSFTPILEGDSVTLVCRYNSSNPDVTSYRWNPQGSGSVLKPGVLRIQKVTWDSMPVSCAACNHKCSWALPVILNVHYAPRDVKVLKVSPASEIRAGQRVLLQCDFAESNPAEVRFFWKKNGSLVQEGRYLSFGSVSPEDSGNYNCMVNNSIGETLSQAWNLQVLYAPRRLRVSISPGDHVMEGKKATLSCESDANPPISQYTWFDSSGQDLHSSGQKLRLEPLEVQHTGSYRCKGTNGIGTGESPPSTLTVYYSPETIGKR
# B1: F1.161.7 (antibody, human IgG1, kappa, V domains shown)
# VH: QVQLQQPGAELVKPGASVKMSCKASGYTFTSYWISWVKQRPGQGLEWIGDIYPGTGSSNYNEKFKSKATLTVDTSSSTAYMQLSSLTSEDSAVYYCARLKFEGIGYWGQGTTLTVSS
# VL: QIVLTQSPAIMSASLGEEITLTCSASSSVSYMHWFQQKSGTSPKLLIYSISNLASGVPSRFSGSGSGTFYSLTISSVEAEDAADYYCHQWSSYPWTFGGGTKLEIKR
# notes: Human-murine chimeric IgG1, kappa
# B2: F2.121.9 (antibody, human IgG1, lambda, V domains shown)
# VH: EVQLVESGGGLVKPGGSLKLSCAASGFTFSDYVMSWIRQTPEKRLEWVATISDAGSYTFYPDNLKGRFTISRDNAKNNLYLQMNHLTSEDTAFYYCAIIYFGNYGGYWGQGTLVTVSV
# VL: QAVVTQESALTTSPGGTVVLTCRSNTGAVTTSNYANWVQEKPDHLFTGLIGGTSNRAPGVPVRFSGSLIGDKAALTITGAQTEDDAMYFCALWYSTHWVFGGGTKLTVLG
# notes: Human-murine chimeric IgG1, lambda
# B3: F1.62.10 (antibody, human IgG1, kappa, V domains shown)
# VH: QVQLQQSGPELVKPGASVKISCKASGYEFSSIWMNWVKQRPGEGLEWIGRIFPGDGEINYNEKFKGKATLTADRSSTTAYMQLSSLTSEDSAVYFCAGWRIYYGTYGAMDYWGQGTSVTVSS
# VL: DIQMTQITSSLSASLGDRVTISCRASQDIGNYLNWYQQKPDGTVKLLIYYTSRLHSGVPSRFSGSGSRTDYSLTISNLQQEDIATYFCQQGNTLPWTFGGGTKLEIKR
# notes: as for B1
# Target: T1, human CD22-ECD-His protein
# Assay: ELISA, Ab 0.001 nM
# Procedure: (§1) In order to detect the binding activity of CD22 human-murine chimeric antibodies to CD22 protein, the purified human CD22-ECD-His protein obtained in Example 2 was diluted with PBS to a final concentration of 2 μg/mL, and then added to 96-well ELISA plate at 100 μl/well. The plate was sealed with plastic film and incubated overnight at 4° C., the plate was washed 2 times with PBS the next day, and then a blocking solution [PBS+2% (w/w) BSA] was added for blocking at room temperature for 2 hours. […] After incubation at 37° C. for 2 hours, the plate was washed 3 times with PBS. HRP (horseradish peroxidase)-labeled secondary antibody (purchased from Sigma, catalog number: A0170) was added, and incubated at 37° C. for 2 hours, and the plate was washed 5 times with PBS. TMB substrate was added at 50 μl/well, and incubated at room temperature for 30 minutes, then a stop solution (1.0 N HCl) was added at 50 μl/well.
row,OD450,Binder
1,1.22 OD450,B1
2,0.69 OD450,B2
3,1.07 OD450,B3

# Target: T1, human CD22-ECD-His protein
# Assay: ELISA, Ab 0.00001 nM
# Procedure: as §1
row,OD450,Binder
1,0.25 OD450,B1
2,0.23 OD450,B2
3,0.24 OD450,B3

# Target: T1, human CD22-ECD-His protein
# Assay: ELISA, human CD22-ECD-His coated
# Procedure: as §1
row,EC50 (read off the curve),Binder
1,~0.02 nM,B1
2,~0.03 nM,B2
3,~0.02 nM,B3

# Target: T1, human CD22-ECD-His protein
# Assay: ELISA, Ab 0.01 nM
# Procedure: as §1
row,OD450,Binder
1,2.34 OD450,B1
2,1.6 OD450,B2
3,2.16 OD450,B3

# Target: T1, human CD22-ECD-His protein
# Assay: ELISA, Ab 0.10 nM
# Procedure: as §1
row,OD450,Binder
1,2.61 OD450,B1
2,1.84 OD450,B2
3,2.79 OD450,B3

# Target: T1, human CD22-ECD-His protein
# Assay: ELISA, Ab 0.0001 nM
# Procedure: as §1
row,OD450,Binder
1,0.43 OD450,B1
2,0.33 OD450,B2
3,0.37 OD450,B3

# Target: T2, human CD22 domain5-7-His
# Assay: ELISA, human CD22 domain5-7-His coated
row,binding result,Binder
1,no binding (tested: 100 nM),B1
2,no binding (tested: 100 nM),B2
3,no binding (tested: 100 nM),B3

# Target: T1, human CD22-ECD-His protein
# Assay: ELISA, Ab 100.00 nM
# Procedure: as §1
row,OD450,Binder
1,2.97 OD450,B1
2,2.11 OD450,B2
3,2.93 OD450,B3

# Target: T1, human CD22-ECD-His protein
# Assay: ELISA, Ab 10.00 nM
# Procedure: as §1
row,OD450,Binder
1,2.63 OD450,B1
2,1.92 OD450,B2
3,2.67 OD450,B3

# Target: T3, murine CD22 protein (ACROBiosystems, …)
# Assay: ELISA, murine CD22-ECD-His coated
# Procedure: as §1
# In order to detect the species cross-binding activity of the chimeric antibodies, an ELISA plate was coated with commercial murine CD22 protein (ACROBiosystems, catalog number: SI2-M52Ha) and monkey CD22 protein (ACROBiosystems, catalog number: SI2-R52Ha), respectively, and the ELISA detection was performed according to the method in Example 5.1.
row,binding result,Binder
1,no binding (tested: 100 nM),B1
2,no binding (tested: 100 nM),B2
3,no binding (tested: 100 nM),B3
